One substance from publication PMC11963481, “The Vacuolar Inositol Transporter BvINT1;1 Contributes to Raffinose Biosynthesis and Reactive Oxygen Species Scavenging During Cold Stress in Sugar Beet” (Plant, Cell & Environment, 2025) can be followed below.

The series deals with T1, O[C@H]1[C@H](O)[C@@H](O)[C@H](O)[C@@H](O)[C@H]1O.
T1 construct: full-length CDS with C-terminal dileucine motif mutated (LL489/490AA) for plasma membrane targeting; cRNA-injected Xenopus laevis oocytes
In words: two-electrode voltage clamp, inward currents in Xenopus oocytes, Michaelis-Menten fit. In kind it is cell-based, Beta vulgaris. As to conditions: pH 5.5, room temperature, holding potential -20 mV, 96 mM NaCl bath, inositol/H+ symport, n = 7 oocytes.

Take “BvINT1;1 LL489/490AA (INT1;1^PM, BvINT1;1^PM) (Beta vulgaris subsp. vulgaris; L489A/L490A)”: the Km – broadly, the concentration of substrate that gives half-maximal velocity – came to 2300 ± 300 µM.
